{
  "source": "paper PMC6218445",
  "about": "“Pyruvate kinase M2 regulates homologous recombination-mediated DNA double-strand break repair” (Cell Research, 2018)",
  "biological_target": "T1, pyruvate kinase M2 (human (endogenous in U87), UniProt P14618 1-531)",
  "T1 construct": "pyruvate kinase M2 (PKM2), endogenous in the human glioblastoma cell line U87; In irradiated cells part of the nuclear PKM2 is phosphorylated at T328 by ATM; The lysates hold a mixture; also called PKM2; source: endogenous, U87 lysate",
  "T1 sequence (P14618 whole entry)": "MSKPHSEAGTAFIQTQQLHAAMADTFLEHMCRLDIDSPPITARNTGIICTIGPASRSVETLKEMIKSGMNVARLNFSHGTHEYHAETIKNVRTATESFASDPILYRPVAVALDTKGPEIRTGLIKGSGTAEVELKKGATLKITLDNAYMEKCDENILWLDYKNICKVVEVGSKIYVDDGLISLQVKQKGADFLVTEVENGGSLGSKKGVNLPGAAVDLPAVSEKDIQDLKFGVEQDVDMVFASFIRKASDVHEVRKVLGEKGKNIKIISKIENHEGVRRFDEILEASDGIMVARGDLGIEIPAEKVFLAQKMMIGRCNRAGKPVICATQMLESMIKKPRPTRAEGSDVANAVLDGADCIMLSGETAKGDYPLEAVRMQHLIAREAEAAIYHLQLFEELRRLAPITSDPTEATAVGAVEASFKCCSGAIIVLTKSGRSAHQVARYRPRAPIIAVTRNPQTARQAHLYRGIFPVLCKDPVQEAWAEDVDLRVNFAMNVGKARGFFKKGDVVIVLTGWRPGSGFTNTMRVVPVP",
  "experiment": "not stated; association of PKM2 and CtIP after irradiation, with the ATM inhibitor KU55933 against without; legend of Fig. S7a not shown",
  "conditions": "partners not purified",
  "data": [
    {"binder": "CtBP-interacting protein (natural protein, human (endogenous in U87), UniProt Q99708 1-897, looked up, also called CtIP; source: endogenous, U87 lysate) MNISGSSCGSPNSADTSSDFKDLWTKLKECHDREVQGLQVKVTKLKQERILDAQRLEEFFTKNQQLREQQKVLHETIKVLEDRLRAGLCDRCAVTEEHMRKKQQEFENIRQQNLKLITELMNERNTLQEENKKLSEQLQQKIENDQQHQAAELECEEDVIPDSPITAFSFSGVNRLRRKENPHVRYIEQTHTKLEHSVCANEMRKVSKSSTHPQHNPNENEILVADTYDQSQSPMAKAHGTSSYTPDKSSFNLATVVAETLGLGVQEESETQGPMSPLGDELYHCLEGNHKKQPFEESTRNTEDSLRFSDSTSKTPPQEELPTRVSSPVFGATSSIKSGLDLNTSLSPSLLQPGKKKHLKTLPFSNTCISRLEKTRSKSEDSALFTHHSLGSEVNKIIIQSSNKQILINKNISESLGEQNRTEYGKDSNTDKHLEPLKSLGGRTSKRKKTEEESEHEVSCPQASFDKENAFPFPMDNQFSMNGDCVMDKPLDLSDRFSAIQRQEKSQGSETSKNKFRQVTLYEALKTIPKGFSSSRKASDGNCTLPKDSPGEPCSQECIILQPLNKCSPDNKPSLQIKEENAVFKIPLRPRESLETENVLDDIKSAGSHEPIKIQTRSDHGGCELASVLQLNPCRTGKIKSLQNNQDVSFENIQWSIDPGADLSQYKMDVTVIDTKDGSQSKLGGETVDMDCTLVSETVLLKMKKQEQKGEKSSNEERKMNDSLEDMFDRTTHEEYESCLADSFSQAADEEEELSTATKKLHTHGDKQDKVKQKAFVEPYFKGDERETSLQNFPHIEVVRKKEERRKLLGHTCKECEIYYADMPAEEREKKLASCSRHRFRYIPPNTPENFWEVGFPSTQTCMERGYIKEDLDPCPRPKRRQPYNAIFSPKGKEQKT", "values": [
      {"measurement": "fold reduction of the association by KU55933 after irradiation", "result": "> 2.5", "unit": "fold"}
    ]}
  ]
}
